Earlier results on one substance are cited in paper PMC11759867.

As usually defined, the Kd is the equilibrium constant for the complex coming apart.

In the data set the target is MD2 (Homo sapiens) (UniProt Q9Y6Y9).
Sequence of UniProt Q9Y6Y9 (Q9Y6Y9 19-160): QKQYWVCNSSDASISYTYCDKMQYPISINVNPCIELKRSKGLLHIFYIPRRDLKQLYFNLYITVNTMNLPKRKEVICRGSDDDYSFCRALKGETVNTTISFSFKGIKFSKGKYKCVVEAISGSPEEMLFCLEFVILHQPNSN

As for CIRP 106-125 (from UniProt Q14011), the Kd is 0.302 µM.
